Experimental data reported in publication PMC3796514.

Columns and labels:
[1] = target: HapRV2G-E117K (HapR natural variant with lysine at position 117 in the dimerization domain), N-terminal 6X His fusion (Vibrio cholerae); assay: SEC
[2] = target: HapRV2G (wild type functional HapR, glycine at position 39), N-terminal 6X His fusion (Vibrio cholerae); assay: SEC

## HapRV2G-E117K (HapR natural variant with lysine at position 117 in the dimerization domain), N-terminal 6X His fusion (natural protein)
[1]
  stoichiometry N: 2

## HapRV2G (wild type functional HapR, glycine at position 39), N-terminal 6X His fusion (natural protein)
[2]
  stoichiometry N: 2
